Values of other authors in patent US20050176623A1, “Non-invasive treatment of disease using amphipathic compounds” (priority 2004, published 2005).

Settings: fractional catabolic rate, kidney

## apolipoprotein A-I [apoA-I]
  normal clearance of apoA-I: approximately 0.3 pools/day
